# Laboratory results as given in patent US20050120396.
# Molecular target: GST-MKK4 fusion protein [GST: P08515]
# Sequence (P08515 whole entry, looked up, the tested form may be a part): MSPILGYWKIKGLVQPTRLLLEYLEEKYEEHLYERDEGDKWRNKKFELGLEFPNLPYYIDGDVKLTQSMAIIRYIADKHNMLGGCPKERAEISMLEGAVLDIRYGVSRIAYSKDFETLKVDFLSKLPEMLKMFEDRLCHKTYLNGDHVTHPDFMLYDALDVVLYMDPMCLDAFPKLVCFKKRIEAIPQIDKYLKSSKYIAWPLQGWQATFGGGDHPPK
row,Protein,"phosphorylation of GST-MKK4 (32P incorporation in kinase reaction, SDS-PAGE and imaging)"
1,His-tagged hMEKK1 (polyhistidine-hMEKK1 fusion) (protein) HHHHHHMENKETLKGLHKMDDRPEERMIREKLKATCMPAWKHEWLERRNRRGPVVVKPIPVKGDGSEMNHLAAESPGEVQASAASPASKGRRSPSPGNSPSGRTVKSESPGVRRKRVSPVPFQSGRITPPRRAPSPDGFSPYSPEETNRRVNKVMRARLYLLQQIGPNSFLIGGDSPDNKYRVFIGPQNCSCARGTFCIHLLFVMLRVFQLEPSDPMLWRKTLKNFEVESLFQKYHSRRSSRIKAPSRNTIQKFVSRMSNSHTLSSSSTSTSSSENSIKDEEEQMCPICLLGMLDEESLTVCEDGCRNKLHHHCMSIWAEECRRNREPLICPLCRSKWRSHDFYSHELSSPVDSPSSLRAAQQQTVQQQPLAGSRRNQESNFNLTHYGTQQIPPAYKDLAEPWIQVFGMELVGCLFSRNWNVREMALRRLSHDVSGALLLANGESTGNSGGSSGSSPSGGATSGSSQTSISGDVVEACCSVLSMVCADPVYKVYVAALKTLRAMLVYTPCHSLAERIKLQRLLQPVVDTILVKCADANSRTSQLSISTLLELCKGQAGELAVGREILKAGSIGIGGVDYVLNCILGNQTESNNWQELLGRLCLIDRLLLEFPAEFYPHIVSTDVSQAEPVEIRYKKLLSLLTFALQSIDNSHSMVGKLSRRIYLSSARMVTTVPHVFSKLLEMLSVSSSTHFTRMRRRLMAIADEVEIAEAIQLGVEDTLDGQQDSFLQASVPNNYLETTENSSPECTIHLEKTGKGLCATKLSASSEDISERLASISVGPSSSTTTTTTTTEQPKPMVQTKGRPHSQCLNSSPLSHHSQLMFPALSTPSSSTPSVPAGTATDVSKHRLQGFIPCRIPSASPQTQRKFSLQFHRNCPENKDSDKLSPVFTQSRPLPSSNIHRPKPSRPTPGNTSKQGDPSKNSMTLDLNSSSKCDDSFGCSSNSSNAVIPSDETVFTPVEEKCRLDVNTELNSSIEDLLEASMPSSDTTVTFKSEVAVLSPEKAENDDTYKDDVNHNQKCKEKMEAEEEEALAIAMAMSASQDALPIVPQLQVENGEDIIIIQQDTPETLPGHTKAKQPYREDTEWLKGQQIGLGAFSSCYQAQDVGTGTLMAVKQVTYVRNTSSEQEEVVEALREEIRMMSHLNHPNIIRMLGATCEKSNYNLFIEWMAGGSVAHLLSKYGAFKESVVINYTEQLLRGLSYLHENQIIHRDVKGANLLIDSTGQRLRIADFGAAARLASKGTGAGEFQGQLLGTIAFMAPEVLRGQQYGRSCDVWSVGCAIIEMACAKPPWNAEKHSNHLALIFKIASATTAPSIPSHLSPGLRDVALRCLELQPQDRPPSRELLKHPVFRTTW,"The ability of extracts containing his-tagged hMEKK1 to phosphorylate GST-MKK4 was comparable to the activity of purified mouse MEKK1, and significantly above the background levels seen with control extracts"
2,purified mouse MEKK1 (protein) MVTAVPAVFSKLVTMLNASGSTHFTRMRRRLMAIADEVEIAEVIQLGVEDTVDGHQDSLQAVAPTSCLENSSLEHTVHREKTGKGLSATRLSASSEDISDRLAGVSVGLPSSTTTEQPKPAVQTKGRPHSQCLNSSPLSHAQLMFPAPSAPCSSAPSVPDISKHRPQAFVPCKIPSASPQTQRKFSLQFQRNCSEHRDSDQLSPVFTQSRPPPSSNIHRPKPSRPVPGSTSKLGDATKSSMTLDLGSASRCDDSFGGGGNSGNAVIPSDETVFTPVEDKCRLDVNTELNSSIEDLLEASMPSSDTTVTFKSEVAVLSPEKAENDDTYKDDVNHNQKCKEKMEAEEEEALAIAMAMSASQDALPIVPQLQVENGEDIIIIQQDTPETLPGHTKAKQPYREDAEWLKGQQIGLGAFSSCYQAQDVGTGTLMAVKQVTYVRNTSSEQEEVVEALREEIRMMGHLNHPNIIRMLGATCEKSNYNLFIEWMAGGSVAHLLSKYGAFKESVVINYTEQLLRGLSYLHENQIIHRDVKGANLLIDSTGQRLRIADFGAAARLASKGTGAGEFQGQLLGTIAFMAPEVLRGQQYGRSCDVWSVGCAIIEMACAKPPWNAEKHSNHLALIFKIASATTAPSIPSHLSPGLRDVAVRCLELQPQDRPPSRELLKHPVFRTTW,The ability of extracts containing his-tagged hMEKK1 to phosphorylate GST-MKK4 was comparable to the activity of purified mouse MEKK1
